Sequences and labels used below:
B1: CD2-associated protein, residues 109 to 169; numbered along this chain, Q9Y5K6 (parent)
chain: KKRQCKVLFEYIPQNEDELELKVGDIIDINEEVEEGWWSGTLNNKLGLFPSNFVKELEVTD

± gives the uncertainty stated by the source.

The data set covers variants of B1. Briefly: abundance fitness (aPCA) (normalised: wild type 0, dead -1); higher = more abundant; growth selection in yeast, the domain comes from the species named. Particulars: Homo sapiens.
With KKRQCKVLFEYIPQNEDELELKVGDIIDINEEVEEGWWSGTLNNKLGLFPSNFVKEIEVTD [L57I], the abundance fitness is 0.241 ± 0.18.

With KKRQCKVLFEYIPQNEDELELKVGDIIDINEEVEEGWWSGTLNNKLGLFPSNFVKENEVTD [L57N], the abundance fitness was -0.69 ± 0.3.

As for KKRQCKVLFEYIPQNEDELELKVGDIIDINEEVEEGWWSGTLNNKLGLFPSNFVKEPEVTD [L57P], the abundance fitness is -0.508 ± 0.23.

KKRQCKVLFEYIPQNEDELELKVGDIIDINEEVEEGWWSGTLNNKLGLFPSNFVKEKEVTD [L57K]: the abundance fitness is -0.263 ± 0.15.

Regarding KKRQCKVLFEYIPQNEDELELKVGDIIDINEEVEEGWWSGTLNNKLGLFPSNFVKECEVTD [L57C], the abundance fitness was -0.041 ± 0.33.

Take KKRQCKVLFEYIPQNEDELELKVGDIIDINEEVEEGWWSGTLNNKLGLFPSNFVKEGEVTD [L57G]: the abundance fitness was -0.864 ± 0.44.

With KKRQCKVLFEYIPQNEDELELKVGDIIDINEEVEEGWWSGTLNNKLGLFPSNFVKEFEVTD [L57F], the abundance fitness was -0.148 ± 0.13.

In the case of KKRQCKVLFEYIPQNEDELELKVGDIIDINEEVEEGWWSGTLNNKLGLFPSNFVKEAEVTD [L57A], the abundance fitness is -0.585 ± 0.4.

As to KKRQCKVLFEYIPQNEDELELKVGDIIDINEEVEEGWWSGTLNNKLGLFPSNFVKEEEVTD [L57E], the abundance fitness was -0.133 ± 0.14.

As for KKRQCKVLFEYIPQNEDELELKVGDIIDINEEVEEGWWSGTLNNKLGLFPSNFWKELEVTD [V54W], the abundance fitness was -0.903 ± 0.24.

Consider KKRQCKVLFEYIPQNEDELELKVGDIIDINEEVEEGWWSGTLNNKLGLFPSNFTKELEVTD [V54T], for which the abundance fitness is -0.222 ± 0.15.

As for KKRQCKVLFEYIPQNEDELELKVGDIIDINEEVEEGWWSGTLNNKLGLFPSNFRKELEVTD [V54R], the abundance fitness is -0.969 ± 0.31.

For the variant KKRQCKVLFEYIPQNEDELELKVGDIIDINEEVEEGWWSGTLNNKLGLFPSNFSKELEVTD [V54S], the abundance fitness is -0.94 ± 0.36.

In the case of KKRQCKVLFEYIPQNEDELELKVGDIIDINEEVEEGWWSGTLNNKLGLFPSNFVHELEVTD [K55H], the abundance fitness is -0.035 ± 0.22.

For the variant KKRQCKVLFEYIPQNEDELELKVGDIIDINEEVEEGWWSGTLNNKLGLFPSNFVAELEVTD [K55A], the abundance fitness is -0.01 ± 0.087.

With KKRQCKVLFEYIPQNEDELELKVGDIIDINEEVEEGWWSGTLNNKLGLFPSNFVIELEVTD [K55I], the abundance fitness was -0.077 ± 0.1.

As for KKRQCKVLFEYIPQNEDELELKVGDIIDINEEVEEGWWSGTLNNKLGLFPSNFVVELEVTD [K55V], the abundance fitness was -0.146 ± 0.078.

For the variant KKRQCKVLFEYIPQNEDELELKVGDIIDINEEVEEGWWSGTLNNKLGLFPSNFVLELEVTD [K55L], the abundance fitness was -0.29 ± 0.064.

For the variant KKRQCKVLFEYIPQNEDELELKVGDIIDINEEVEEGWWSGTLNNKLGLFPSNFVSELEVTD [K55S], the abundance fitness is -0.259 ± 0.08.

For the variant KKRQCKVLFEYIPQNEDELELKVGDIIDINEEVEEGWWSGTLNNKLGLFPSNFVCELEVTD [K55C], the abundance fitness was -0.142 ± 0.11.

Consider KKRQCKVLFEYIPQNEDELELKVGDIIDINEEVEEGWWSGTLNNKLGLFPSNFVPELEVTD [K55P], for which the abundance fitness is -1.05 ± 0.31.

As to KKRQCKVLFEYIPQNEDELELKVGDIIDINEEVEEGWWSGTLNNKLGLFPSNFVTELEVTD [K55T], the abundance fitness was -0.163 ± 0.11.

Regarding KKRQCKVLFEYIPQNEDELELKVGDIIDINEEVEEGWWSGTLNNKLGLFPSNFVMELEVTD [K55M], the abundance fitness turned out to be 0.009 ± 0.091.

In the case of KKRQCKVLFEYIPQNEDELELKVGDIIDINEEVEEGWWSGTLNNKLGLFPSNFVRELEVTD [K55R], the abundance fitness turned out to be 0.017 ± 0.064.

For KKRQCKVLFEYIPQNEDELELKVGDIIDINEEVEEGWWSGTLNNKLGLFPSNFVGELEVTD [K55G], the abundance fitness is -0.131 ± 0.083.

As to KKRQCKVLFEYIPQNEDELELKVGDIIDINEEVEEGWWSGTLNNKLGLFPSNFVDELEVTD [K55D], the abundance fitness is -0.313 ± 0.25.

As to KKRQCKVLFEYIPQNEDELELKVGDIIDINEEVEEGWWSGTLNNKLGLFPSNFVEELEVTD [K55E], the abundance fitness came to 0.127 ± 0.075.

With KKRQCKVLFEYIPQNEDELELKVGDIIDINEEVEEGWWSGTLNNKLGLFPSNFVNELEVTD [K55N], the abundance fitness is -0.193 ± 0.27.

Regarding KKRQCKVLFEYIPQNEDELELKVGDIIDINEEVEEGWWSGTLNNKLGLFPSNFVQELEVTD [K55Q], the abundance fitness worked out at 0.064 ± 0.096.

For KKRQCKVLFEYIPQNEDELELKVGDIIDINEEVEEGWWSGTLNNKLGLFPSNFVKILEVTD [E56I], the abundance fitness was -0.225 ± 0.11.

On to KKRQCKVLFEYIPQNEDELELKVGDIIDINEEVEEGWWSGTLNNKLGLFPSNFVKTLEVTD [E56T], for which the abundance fitness was -0.033 ± 0.097.

KKRQCKVLFEYIPQNEDELELKVGDIIDINEEVEEGWWSGTLNNKLGLFPSNFVKALEVTD [E56A]: the abundance fitness was -0.366 ± 0.12.

Regarding KKRQCKVLFEYIPQNEDELELKVGDIIDINEEVEEGWWSGTLNNKLGLFPSNFVKKLEVTD [E56K], the abundance fitness was determined as 0.16 ± 0.14.

Turning to KKRQCKVLFEYIPQNEDELELKVGDIIDINEEVEEGWWSGTLNNKLGLFPSNFVKPLEVTD [E56P], the abundance fitness was -0.224 ± 0.1.

For KKRQCKVLFEYIPQNEDELELKVGDIIDINEEVEEGWWSGTLNNKLGLFPSNFVKLLEVTD [E56L], the abundance fitness was -0.058 ± 0.068.

Consider KKRQCKVLFEYIPQNEDELELKVGDIIDINEEVEEGWWSGTLNNKLGLFPSNFVKCLEVTD [E56C], for which the abundance fitness came to 0.034 ± 0.14.

As for KKRQCKVLFEYIPQNEDELELKVGDIIDINEEVEEGWWSGTLNNKLGLFPSNFVKYLEVTD [E56Y], the abundance fitness is -0.717 ± 0.28.

Regarding KKRQCKVLFEYIPQNEDELELKVGDIIDINEEVEEGWWSGTLNNKLGLFPSNFVKQLEVTD [E56Q], the abundance fitness was -0.291 ± 0.18.

As for KKRQCKVLFEYIPQNEDELELKVGDIIDINEEVEEGWWSGTLNNKLGLFPSNFVKHLEVTD [E56H], the abundance fitness was -0.666 ± 0.23.

Consider KKRQCKVLFEYIPQNEDELELKVGDIIDINEEVEEGWWSGTLNNKLGLFPSNFVKWLEVTD [E56W], for which the abundance fitness was -0.769 ± 0.19.

Take KKRQCKVLFEYIPQNEDELELKVGDIIDINEEVEEGWWSGTLNNKLGLFPSNFVKFLEVTD [E56F]: the abundance fitness was -0.406 ± 0.21.

Take KKRQCKVLFEYIPQNEDELELKVGDIIDINEEVEEGWWSGTLNNKLGLFPSNFVKVLEVTD [E56V]: the abundance fitness was -0.105 ± 0.08.

With KKRQCKVLFEYIPQNEDELELKVGDIIDINEEVEEGWWSGTLNNKLGLFPSNFVKDLEVTD [E56D], the abundance fitness is -0.505 ± 0.24.

As for KKRQCKVLFEYIPQNEDELELKVGDIIDINEEVEEGWWSGTLNNKLGLFPSNFVKSLEVTD [E56S], the abundance fitness was -0.32 ± 0.094.

The values are drawn from the Human Domainome abundance scans (Beltran et al. 2025).
